From PMC7057950 (2020)

Biological target: the molecule itself

B1: hHsp90β (protein)
chain: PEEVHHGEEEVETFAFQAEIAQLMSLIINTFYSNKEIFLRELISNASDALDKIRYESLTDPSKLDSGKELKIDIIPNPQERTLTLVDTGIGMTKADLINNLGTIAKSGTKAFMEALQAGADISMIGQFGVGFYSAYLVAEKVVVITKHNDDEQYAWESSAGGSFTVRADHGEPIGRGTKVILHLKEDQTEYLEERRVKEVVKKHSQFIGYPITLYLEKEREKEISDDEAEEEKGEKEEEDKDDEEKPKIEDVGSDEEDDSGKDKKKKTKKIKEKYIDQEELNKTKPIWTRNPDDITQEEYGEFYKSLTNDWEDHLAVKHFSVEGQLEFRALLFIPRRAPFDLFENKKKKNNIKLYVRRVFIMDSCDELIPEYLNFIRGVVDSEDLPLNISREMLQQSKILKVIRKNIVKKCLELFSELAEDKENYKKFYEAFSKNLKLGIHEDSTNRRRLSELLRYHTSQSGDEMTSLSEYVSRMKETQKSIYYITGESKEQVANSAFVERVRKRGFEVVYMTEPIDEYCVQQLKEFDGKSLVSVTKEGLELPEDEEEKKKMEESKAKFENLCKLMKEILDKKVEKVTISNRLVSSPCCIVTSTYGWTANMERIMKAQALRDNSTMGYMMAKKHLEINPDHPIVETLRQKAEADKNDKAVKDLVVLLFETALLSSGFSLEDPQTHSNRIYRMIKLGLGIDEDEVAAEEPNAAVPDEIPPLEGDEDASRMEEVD
  Kd: ~9.5 nM
